Patent publication US20240400708A1
Residue numbers refer to the chain shown, from its start. Numbers in names are those of the source. Values belong to the binder of their own block, whether it stands above or below them.

Legend:
[1] = biological target: Feline FcRn complex (FcRn-alpha subunit and beta-microglobulin) (feline); test: SPR (Biacore), feline FcRn captured on SA chip, IgG flowed over, pH 6
[2] = biological target: feline FcRn complex (FcRn-α subunit and β-microglobulin) (feline); test: SPR (Biacore), FcRn on SA chip, pH 6
[3] = biological target: feline FcRn complex (FcRn-α subunit and β-microglobulin) (feline); test: SPR (Biacore), FcRn on SA chip, pH 7.4

B1: feline IgG1a Fc mutant S428L, S252W (antibody, part only; not given: Variable domains, not shown: another chain or arm of the molecule; small tags and cut ends)
constant: ASTTAPSVFPLAPSCGTTSGATVALACLVLGYFPEPVTVSWNSGALTSGVHTFPAVLQASGLYSLSSMVTVPSSRWLSDTFTCNVAHPPSNTKVDKTVRKTDHPPGPKPCDCPKCPPPEMLGGPSIFIFPPKPKDTLWISRTPEVTCLVVDLGPDDSDVQITWFVDNTQVYTAKTSPREEQFNSTYRVVSVLPILHQDWLKGKEFKCKVNSKSLPSPIERTISKAKGQPHEPQVYVLPPAQEELSRNKVSVTCLIKSFHPPDIAVEWEITGQPEPENNYRTTPPQLDSDGTYFVYSKLSVDRSHWQRGNTYTCSVLHEALHSHHTQKSLTQSPGK
Kd [1]: 6.14 nM

B8: feline IgG1a Fc mutant Q311H, S428L (antibody, part only; not given: Variable domains, not shown: another chain or arm of the molecule; small tags and cut ends)
constant: B1 constant with W138S, Q197H
Kd [1]: 7.19 nM

B9: feline IgG1a Fc mutant Q311K, S428L (antibody, part only; not given: variable domains and light chain, not shown: another chain or arm of the molecule; small tags and cut ends)
constant: B1 constant with W138S, Q197K
Kd [1]: 5.62 nM

B13: feline IgG1a Fc mutant Q311Y, S428M (antibody, part only; not given: Variable domains, not shown: another chain or arm of the molecule; small tags and cut ends)
constant: B1 constant with W138S, Q197Y, L316M
Kd [1]: 5.73 nM

B15: feline IgG1a Fc mutant Q311R, S428L (antibody, part only; not given: Variable domains, not shown: another chain or arm of the molecule; small tags and cut ends)
constant: B1 constant with W138S, Q197R
Kd [1]: 5.47 nM

B18: feline IgG1a mutant ID No. 336: S252Y, S428M, S434F, A431K (antibody, part only; not given: Variable domains, not shown: another chain or arm of the molecule)
constant: B1 constant with W138Y, L316M, A319K, S322F
Kd [2]: 0.0359 nM | Kd [3]: 7.28 nM

B19: feline IgG1a mutant ID No. 342: S252Y, S428M, S434F, D312P (antibody, part only; not given: Variable domains, not shown: another chain or arm of the molecule; small tags and cut ends)
constant: B1 constant with W138Y, D198P, L316M, S322F
Kd [2]: 0.0063 nM | Kd [3]: 3.29 nM

B21: feline IgG1a Fc mutant S428M, S252W (antibody, part only; not given: variable domains and light chain, not shown: another chain or arm of the molecule; small tags and cut ends)
constant: B1 constant with L316M
Kd [1]: 4.65 nM

B22: feline IgG1a mutant ID No. 338: S252Y, S428M, S434F, D399T (antibody, part only; not given: variable domains and light chain, not shown: another chain or arm of the molecule)
constant: B1 constant with W138Y, D287T, L316M, S322F
Kd [2]: 0.0272 nM | Kd [3]: 13.8 nM

B24: feline IgG1a mutant ID No. 337: S252Y, S428M, S434F, D312H (antibody, part only; not given: Variable domains, not shown: another chain or arm of the molecule)
constant: B1 constant with W138Y, D198H, L316M, S322F
Kd [2]: 0.0272 nM | Kd [3]: 8.96 nM

B25: feline IgG1a mutant ID No. 345: S252Y, S428M, S434F, E430I (antibody, part only; not given: Variable domains, not shown: another chain or arm of the molecule)
constant: B1 constant with W138Y, L316M, E318I, S322F
Kd [2]: 0.0227 nM | Kd [3]: 11.5 nM

Now from value to binder:

Kd [2]: 0.0567 nM | Kd [3]: 10.5 nM
B2: feline IgG1a mutant ID No. 347: S252Y, S428M, S434F, L314K (antibody, part only; not given: variable domains and light chain, not shown: another chain or arm of the molecule)
constant: B1 constant with W138Y, L200K, L316M, S322F

Kd [2]: 0.0404 nM | Kd [3]: 9.95 nM
B3: feline IgG1a mutant ID No. 346: S252Y, S428M, S434F, G402R (antibody, part only; not given: Variable domains, not shown: another chain or arm of the molecule)
constant: B1 constant with W138Y, G290R, L316M, S322F

Kd [2]: 1.14 nM | Kd [3]: 43.6 nM
B4: feline IgG1a mutant ID No. 362: S252Y, S434R, D399M (antibody, part only; not given: Variable domains, not shown: another chain or arm of the molecule)
constant: B1 constant with W138Y, D287M, L316S, S322R

Kd [2]: 0.365 nM | Kd [3]: 12.9 nM
B5: feline IgG1a mutant ID No. 373: S252Y, S434R, Q311R (antibody, part only; not given: Variable domains, not shown: another chain or arm of the molecule)
constant: B1 constant with W138Y, Q197R, L316S, S322R

Kd [2]: 0.0271 nM | Kd [3]: 6.48 nM
B6: feline IgG1a mutant ID No. 352: S252Y, S428M, S434F, Q311Y (antibody, part only; not given: Variable domains, not shown: another chain or arm of the molecule)
constant: B1 constant with W138Y, Q197Y, L316M, S322F

Kd [2]: 0.011 nM | Kd [3]: 3.35 nM
B7: feline IgG1a mutant ID No. 351: S252Y, S428M, S434F, Q311W (antibody, part only; not given: Variable domains, not shown: another chain or arm of the molecule)
constant: B1 constant with W138Y, Q197W, L316M, S322F

Kd [2]: 0.859 nM | Kd [3]: 25.8 nM
B10: feline IgG1a mutant ID No. 378: S252Y, S434R, T403R (antibody, part only; not given: Variable domains, not shown: another chain or arm of the molecule)
constant: B1 constant with W138Y, T291R, L316S, S322R

Kd [2]: 0.00949 nM | Kd [3]: 10.8 nM
B11: feline IgG1a mutant ID No. 348: S252Y, S428M, S434F, Q311H (antibody, part only; not given: Variable domains, not shown: another chain or arm of the molecule)
constant: B1 constant with W138Y, Q197H, L316M, S322F

Kd [2]: 0.394 nM | Kd [3]: 24.6 nM
B12: feline IgG1a mutant ID No. 376: S252Y, S434R, T250Q (antibody, part only; not given: Variable domains, not shown: another chain or arm of the molecule)
constant: B1 constant with T136Q, W138Y, L316S, S322R

Kd [2]: 0.0964 nM | Kd [3]: 15.7 nM
B14: feline IgG1a mutant ID No. 355: S252Y, S428M, S434F, T256M (antibody, part only; not given: variable domains and light chain, not shown: another chain or arm of the molecule)
constant: B1 constant with W138Y, T142M, L316M, S322F

Kd [2]: 0.188 nM | Kd [3]: 20.7 nM
B16: feline IgG1a mutant ID No. 361: S252Y, S434R, D312P (antibody, part only; not given: Variable domains, not shown: another chain or arm of the molecule)
constant: B1 constant with W138Y, D198P, L316S, S322R

Kd [2]: 0.732 nM | Kd [3]: 24.4 nM
B17: feline IgG1a mutant ID No. 364: S252Y, S434R, D401R (antibody, part only; not given: Variable domains, not shown: another chain or arm of the molecule)
constant: B1 constant with W138Y, D289R, L316S, S322R

Kd [2]: 0.715 nM | Kd [3]: 30.3 nM
B20: feline IgG1a mutant ID No. 374: S252Y, S434R, Q311Y (antibody, part only; not given: Variable domains, not shown: another chain or arm of the molecule)
constant: B1 constant with W138Y, Q197Y, L316S, S322R

Kd [2]: 0.443 nM | Kd [3]: 21.9 nM
B23: feline IgG1a mutant ID No. 372: S252Y, S434R, Q311M (antibody, part only; not given: Variable domains, not shown: another chain or arm of the molecule)
constant: B1 constant with W138Y, Q197M, L316S, S322R

Kd [2]: 0.488 nM | Kd [3]: 10.7 nM
B26: feline IgG1a mutant ID No. 371: S252Y, S434R, Q311K (antibody, part only; not given: Variable domains, not shown: another chain or arm of the molecule)
constant: B1 constant with W138Y, Q197K, L316S, S322R

Kd [2]: 0.974 nM | Kd [3]: 31.3 nM
B27: feline IgG1a mutant ID No. 370: S252Y, S434R, Q311H (antibody, part only; not given: variable domains and light chain, not shown: another chain or arm of the molecule)
constant: B1 constant with W138Y, Q197H, L316S, S322R
